A short description of the series: soluble on expression in E. coli; label from the status in PepcDB or PDB records.
Regarding “MNTEIEIIATDKVSNQAAMRSVLVMEQWGNGETYSEERWVERGRQAVRQTMEGMFELGRALIILKEHTEHGRFMEIVKSQFGLGIAETSRLMSATRRFATPQMQKAAPKLMDLGKSKLLELLVEEDVTLVGLAEGEEVNGMTFDDVDRMTVRELRVALRESRENLAAKDEVMKTKTAKIDELAEKLAKKQTVVREPKAEDVGSELAMQLTSLEVGIRSQVSRLKDLFDQLNAHSEAHGISHQAKMVGTLNQIILDCEQLRESYALPTEAPTDNVPEWLGGETGEGDESGND”, the “soluble on expression in E. coli” value is given as “not soluble”.

Turning to “MSLLKQKITQAPKTKISQTLRSWLPILQANIEDLKENLDKFAEDNPFLNVQDSIQTHDKGKNYFDSFYKHNVNSAFVDSKGLAKKSVYELLNEQILPPLFPTNKSQELAKKIIECLNEEGYFEYDEEFLKEYSLEEIERVRARFKFLDPVGVGAKDYKEAFLFALENMELDEDIDEFCRMLIMDFENIQNYTKEPLYKEALAVLKRFSTPPFLEYFEDSRIIVPDIFVYKENGEIKVKINDDYYPEISIQTDGLEHDFLSHYIKEAKNLVDALAMRKATLYKIGLMIVEYQYDFFMGKEIKPMTFKDLALDLERNASTISRAVANKYLSCERGLIPLRDFFAFALDEEGETSNVGVKEFVANLVKNEDRNKPLSDSKILELIKEEFKVDIGRRTITKYRKHLNIASSTDRKKLYELEGEGHHHHHH”, the “soluble on expression in E. coli” value is reported as “soluble”. Consider “GMSIIDLTKLEQKVATMWDSILTNSPFIHEVLDGKATKALYAIYMTETYHYTKHNAKNQALVGIMGKDLPGKYLSFCFHHAHEEAGHELMALSDIASIGFDREDVLSSKPLPATETLIAYLYWISATGNPVQRLGYSYWAENVYGYIDPVLKAIQSTLDLTPQSMKFFIAHSKIDAKHAEEVNEMLHEVCKTQEDVDSVVAVMENSLVLTARILDDVWKEYQLFQSGASDRYAFLRDNA”, for which the “soluble on expression in E. coli” value is reported as “soluble”. Turning to “AIAQNDAGEFVDLYVPRKCSASNRIIGAKDHASIQMNVAEVSWEPGRREGCDICAGKAGCPIVEEPLG”, the “soluble on expression in E. coli” value is “soluble”. With “MRAQMKQYNCHEGALPFTKSYLLRPLFNAFLMSPKPFHTTEACIGCKKCEKVCPVGNITVTDRPVWGGNCTQCLACYHVCPVHAVEYGKMTGLEHHHHHH”, the “soluble on expression in E. coli” value is given as “not soluble”. Regarding “SLHCIPLWRCNRHVESIDKRHCSLVYVPEEIYRYARSLEELLLDANQLRELPEQFFQLVKLRKLGLSDNEIQRLPPEIANFMQLVELDVSRNEIPEIPESISFCKALQVADFSGNPLTRLPESFPELQNLTCLSVNDISLQSLPENIGNLYNLASLELRENLLTYLPDSLTQLRRLEELDLGNNEIYNLPESIGALLHLKDLWLDGNQLSELPQEIGNLKNLLCLDVSENRLERLPEEISGLTSLTDLVISQNLLETIPDGIGKLKKLSILKVDQNRLTQLPEAVGECESLTELVLTENQLMTLPKSIGKLKKLSNLNADRNKLVSLPKEIGGCCSLTVFCVRDNRLTRIPAEVSQATELHVLDVAGNRLLHLPLSLTALKLKALWLSDNQSQPMLTFQTDTDYTTGEKILTCVLLPQLPSEPTCQENLPRCGALENLVNDVSDEAWNERAVNRVSAIRFVEDEKDEEDNETRTLLRRATPHPGELKHMKKTVENLRNDMNAAKGLDSNKNEVNHAIDRVTTS”, the “soluble on expression in E. coli” value is listed as “not soluble”. Consider “MISNQVLQNTLEGLKEISRTEFCIIDTEGKVLATTFADFSIQPGDIQAFVESQADSQLVKGFQYFKVCDDYQLEYILVAHGDDEDTYMVGKLAAFQIQNLIVAYKERFDKDSFIKNLLLDNLLLVDIYNRAKKLHIDADVRRVVMILELQQEKDHSSMESVKSFFGGKSKDFITAVDEKSIIIVKELEDGEGYAEMDKLAHAILDTLGLNQNEETHIAYGTIVNELKEVSRSYKEARMALDVGKIFFGEKDVIAYSSLGIGRLIYQLPIPLCKMFIKEIFENKSPDDFDEETLVTIDKFFENSLNVSETSRQLYIHRNTLVYRLDKLQKSTGLDLRVFEDAITFKIALMVVRYMKYMETLEY”, for which the “soluble on expression in E. coli” value is given as “not soluble”. Consider “GAMGNLRLIGVPESDVENGTKLENTLQDIIQENFPNLARQANVQIQEIQRTPQRYSSRRATPRHIIVRFTKVEMKEKMLRAAREKGRVTLKGKPIRLTVD”, for which the “soluble on expression in E. coli” value was “soluble”. Then “ITEDEIRTLMEQGADEGVFDRAEQELVENIFRLDNRKASAVMTPRKDVVILDLEDGPERNRELLLGHPFSHFPVCRGDTDQVIGMLNAKTLLDRLLRGEALDFAAELSPPLYVPSTCSLMQLLEQFKQARSHSALVVDEYGELEGLVSINNVMEAIVGDLPAIDGEEDEIV”, with “not soluble”. For the sequence “GSRNPNKLDINTLTGEERVPVVNKRNGKKMGGAMAPPMKDLPRWLEENPEFAVAPDWTDIVKQSGFVPESMFDRLLTGPVVRGEGAS”, the “soluble on expression in E. coli” value is reported as “soluble”. Under “METDLLDADECSENEKTLESIEKVFSASHLLVKILEFSSAQHRQKLYIAGSRSRQGDLKGFLDLRLVNQQFNEGVCIAVRKEFKHIQIDIDDNFVRCNYFTIGLHHKPPEPGNRENANVEGEDGNPVEEDEEMPAHEDLPSEDTEDVRFLVKFLRWLAGTFDPIVENFKVFDSWSFKPCSLPPSWADRLTVFISMHPDMEYCNCEQCIRIARNCKESFGPLSFRMVEDALRDQNISYGALTFTDAFLADIAIAYTISIDNRDRFDANRFIRDFGGIRVDELTFAVQTLATYRDERPKPQPLEVLQLILRLWEAKTVEFEIVKFMENDYYLQRCAWERSGAFTLAHFATYSFQHFDEFVHVVPYKFSGTLDRDLRNEIMPIFDLRIDPSEGPLRMGSNLSLLSLASQNNENSTFTWINQGRIAFNMFRANHYMFITSGIVEFRGMLGTANWLKFTIRDMMRSTWGPRGSNVTERGKTVYWINFMEDVGDCIQIVWSEHAKELLETNFPNLVVTMNSSHAFRNCSNRRAATYNDSKRPDVQKKPINTFYCTFYDSVRNNTTHMKLIQIAN” stands “not soluble”. As for “MKFRQKHEDFIVNEILEYELNDYGNYFLYKLQKNGIENLKAISYLSKNFEVPTKEIGYCGLKDRHAITTQYVSIPKEYGKLSLDEDNLKLEYVGTIEKPLKIGRLYGNRFEIIARAVDKDEFLKIADNIRNLSSGAPNYYDDQRFGSVFNGKFIAKEILKGNYEEVVKILLTSYTKSEKKQLKDLKRFIAKNWGNWDECLEYIDKKQIRSKMFRNMVKSLTYENDFKKAFKYVDNRLKELFISAYQSYLWNECLKEFLKEVIPKENRIYVDYSCGTFLFYENIEEELFDKLKEMDFPTIVSDVEYTDPEKRIIKAILKKERIKISDFEKLDFGKLKYTKRPIISIPEDVNTGKFKSDELNSKKYKIDLEFSLKKGSYATIILKRVFNILLEHHHHHH”, the “soluble on expression in E. coli” value is “soluble”. Then “MKLIVKVFPEITIKSPPVRKKFIRQLGKNIRTVLRELDADIVVGGVWDNLEVETRLTDPKVLQGIRDRLSCMPGIANFLQVAEYPLGDMDDVVAKCKLHYADLLPGTMFSVRCKRAGRHDFSSMDVEKYVGSQLRMQCGAAGIELKKPDLVVRMEIRDQRLFVVHDQHKGMGGYPLGALEQTLVLMSGGFDSTVAAYQIMRRGLMAHFCFFNLGGRAHELGVMEVAHFIWKKYGSSQRVLFVSVPFEEVLGEILQKVDNSHMGVVLKRMMLRAASAVADRLEIDVLVTGEAISQVASQTLPNLSLIDAATDKLVLRPLVATHKQDIVDLATEIGTADFARHMPEYCGVISVNPKTNAKRNRVEYEEQQFDMAILEQALERAKLVSIDRVIDDLSRNIDIEEVSQALAGQVIIDIRHPDAQEDQPLQVPGVEIQTLPFYALNSRFKALDDTRQYLLYCDKGVMSRLHAHHLLSEGHANVRVYRPS”, with “not soluble”; and “MEAKQRIIPAIKTMKQFDAFLSSGYTVGVLLEVHIAQLKSIFAYARRHGKELIVHVDLVQGLSHDEHAAEYLCQEFRPHGLISTKAGVIMKARQKRVLAVQRIFLLDSHALEKSYQLIAKTNPDCIEVIPGAMPHIIREVKERTGKPIYAGGLIRTVDDVERALAAGAAAVTTSNETLWRHYNG”, with “not soluble”. On to “MDKFKSMTELKELTKEGKDWEIECENRSSIVTILALHGGGIEPATTELAYTIAHCGDYNYFSFKGMRSKGNNELHVTSTHYDDQIALDLVRGSQRTVAIHGCEGNESVAYIGGSDDRLIELITESLEDIGISVREAPHHISGTQENNIVNMTQTQGGVQLELTAQLRKELFKNRKSSRKNRENKDNWDDLMYDFADAMKKAIERALEHHHHHH”, for which the “soluble on expression in E. coli” value was “soluble”.

With “MKTLNNTHIGQIYYIHKIIGKNQAKLRDLGMISDKKITLISTDGENAIVKIDETRLALSSEFLEQIFVKEERSSEDIIGLAHLQVGQTGVVRMIDATSDIRRRLMDMGITRGTSVHLQKLAPLGDPLELRLRGYSLSLRKTDAEKIKVVLERLEHHHHHH”, the “soluble on expression in E. coli” value was “soluble”. Under “ASHMQRIAVTAEGPGLDGLVDPRFGRAAGFVVVDAATMAAEYVDNGASQTLSHGAGINAAQVLAKSGAGVLLTGYVGPKAFQALQAAGIKVGQDLEGLTVRQAVQRFLDGQVPMAAGPNK” stands “soluble”; under “MGELIYGEVKKQTKDGFIIDLGDNAEAYLAREEMIAKEILRPKQRMNAILYSVNREGRGAQLLLSRALEHHHHHH”, “not soluble”; under “SRMMVIKNNSEETKSREYIVIGQVFFASSDKFIASFDFKEVIECVTIDLSAAHFWDITSASALDKVVVKFRREGTQVELIGMNQATKTIVDKFGVHDKPEEVEKLLAG”, “not soluble”. Under “MENPLQKARILVNQLEKYLDHYAKEYDVEHLAGPQGHLVMYLYKHPDKDMSIKAVEEILHISKSVASNLVKRMEKNGFIAIVPSKTDKRVKYLYLTHLGKKKATQFEIFLEKLHSTMLAGITKEEIRTTKKVIRTLAKNMAMENLD” stands “soluble”; under “FISDLHLEAERPDITRAFLSFLDERARRAEALYILGDFFEAWIGDDGMDAFQRSIAQSLRQVADGGTRIYLMHGNRDFLIGKAFCREAGCTLLPDPSVIDLYGEPVLLMHGDSLCTRDEAYMRLRRWLRNPLTLWVLRHLPLATRHKLARKLRKESRAQTRMKAVDIIDVTPEEVPRVMRGHGVRTLIHGHTHRPAEHPLDIDGQPARRIVLGDWDRQGWALEIDANGHR”, “not soluble”.

As for “MADSNSTVEQYRSLKRKMIEKKDLMRNNRTALRACILFNCLLGTSIRDAYNQFCRAVGSDVMEYREYEFWFYQFKRGDADFSDAISWNPNTIKLDELPIEVINTISSFSMPMERLTLRKVSKNLRTLIDSEPFCFQRIIVRIGHRTSYLQLDGYPGIEYIHCGADCNVLYGKRDKYVKNKNHVEYALTEAIQLMRNSNNHSKEFHVRAERSNDQELSMVLRKFFDSVEIELYAKKIVVSGFSFADTSSVLCHFKAGFLEEIQVLPGSGGPWTNVLVEMEQYKKAKVLKICTEFPVLLDIEDLLHFRRFEIAIKSDFTERMARKIRDVLTNSEHFEYAHIITQDLHHRTVIKFFNRNAENVFWNYGSMNYNNKKRLFHIEYNHRQFVIKKLNM”, the “soluble on expression in E. coli” value is “not soluble”. Then “MKLVVCSESDTAGQNIKDNLLTFADFEEKDVGEFKLYLSDEFYIAETKERLIYADHIDEKLAKYIDFEEILFASRHSSKDGRKIFTVHVSGNVGTADFGGKPYSLAKPSPQTMKNYVLALRERLDRKPEFEFTMEVTHHGPSEISKPSAFYEIGSTEEEWKDREAAEVVAEAMLDAIRAEKMDWNVAVGVGGTHYAPRQTEIMLTTTFTFGHNFAKYTFEHLTAEFLVKAVKLSEAEYIIIDEKSVNSAVKKIVNEAAEVAGVEVLKSKKVKKDFRLV”, with “soluble”.

The record behind these values is the DeepSol protein solubility set.
